The values below come from paper doi:10.1101/2020.01.22.914192, “CryoEM structures of human CMG - ATPγS - DNA and CMG - AND-1 complexes”.

This data set has as its target CMG helicase (Cdc45-MCM2-7-GINS) (human, UniProt P49736;P25205;P33991;P33992;Q14566;P33993;O75419;Q14691;Q9Y248;Q9BRX5;Q9BRT9 …). In words: cryoEM structure (3.29 A); ATPgS 100 uM; 5 mM Mg acetate; ATPgS/Mg2+ at MCM6, 4, 7; ADP at MCM2, 3; MCM5 site empty; Buffer S: 25 mM Hepes pH 7.5, 50 mM KCl, 5 mM Mg acetate, 2 mM DTT, 100 uM ATPgS; 4 uM fork DNA applied to StrepTrap-bound CMG, eluted with 15 mM desthiobiotin; binding temperature not stated (stored overnight at 4 C). As to conditions: protein: recombinant; tags: MCM4 N-terminal His8-TEV; Psf2 C-terminal TEV-2xStrepII; copies: 1;1;1;1;1;1;1;1;1;1;1; fork: 40 bp duplex, 30 nt 3' poly-dT tail (strand 1) and 30 nt 5' GC-rich tail (strand 2).

B1: fork DNA 70T/70GC (dsDNA)
DNA 1: CGTTTTACAACGTCGTGACTGGGCACTTGATCGGCCAACCTTTTTTTTTTTTTTTTTTTTTTTTTTTTTT
DNA 2: CAGGCAGGCAGGCAGGCAGGCAGGCAGGCAGGTTGGCCGATCAAGTGCCCAGTCACGACGTTGTAAAACG
As for B1, the binding result is reported as “binds”.
